Measured values reported in US20250270343A1 (Alector, published 2025).

T1: soluble mouse GPNMB-Fc polypeptide (Fc of human IgG1 or mouse IgG2A, not specified for the assay) (mouse, UniProt Q99P91 23-502)
T1 construct: extracellular domain; also called moGPNMB-Fc; mGPNMB; not shown: Fc region of human IgG1 or mouse IgG2A; in the Fab2 assay detected with anti-human IgG1 secondary antibody
T1 sequence (looked up): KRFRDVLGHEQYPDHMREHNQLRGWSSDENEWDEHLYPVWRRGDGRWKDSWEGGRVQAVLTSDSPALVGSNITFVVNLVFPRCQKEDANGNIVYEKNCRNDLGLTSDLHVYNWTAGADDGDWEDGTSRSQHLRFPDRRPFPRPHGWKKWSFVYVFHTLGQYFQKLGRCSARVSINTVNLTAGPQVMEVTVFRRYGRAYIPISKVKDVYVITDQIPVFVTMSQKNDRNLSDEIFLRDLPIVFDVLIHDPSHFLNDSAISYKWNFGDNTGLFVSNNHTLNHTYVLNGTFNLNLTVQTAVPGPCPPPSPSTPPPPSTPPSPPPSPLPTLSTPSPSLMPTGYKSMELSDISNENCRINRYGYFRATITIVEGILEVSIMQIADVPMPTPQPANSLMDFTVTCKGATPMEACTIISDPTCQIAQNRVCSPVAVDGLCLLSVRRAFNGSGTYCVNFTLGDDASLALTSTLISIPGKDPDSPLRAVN

T2: soluble human GPNMB-Fc polypeptide (human, UniProt Q14956 23-498, limits assumed)
T2 construct: also called huGPNMB-Fc; not shown: Fc domain
T2 sequence (looked up): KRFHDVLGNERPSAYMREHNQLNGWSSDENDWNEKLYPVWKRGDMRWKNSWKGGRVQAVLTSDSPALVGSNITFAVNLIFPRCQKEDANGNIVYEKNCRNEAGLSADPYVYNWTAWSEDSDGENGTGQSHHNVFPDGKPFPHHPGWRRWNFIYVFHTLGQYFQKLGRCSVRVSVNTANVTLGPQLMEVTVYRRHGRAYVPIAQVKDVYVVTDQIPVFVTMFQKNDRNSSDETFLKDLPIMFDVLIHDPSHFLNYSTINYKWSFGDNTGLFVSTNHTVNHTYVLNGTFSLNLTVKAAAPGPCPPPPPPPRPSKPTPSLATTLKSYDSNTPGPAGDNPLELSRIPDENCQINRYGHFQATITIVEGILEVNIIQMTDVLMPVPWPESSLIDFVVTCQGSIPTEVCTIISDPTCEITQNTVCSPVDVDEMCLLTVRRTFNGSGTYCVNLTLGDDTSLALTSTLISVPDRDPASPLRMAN

T3: soluble mouse GPNMB (recombinant extracellular domain) (mouse, UniProt Q99P91 23-502)
T3 construct: also called moGPNMB; not shown: C-terminal polyhistidine or Avi-His tag
T3 sequence: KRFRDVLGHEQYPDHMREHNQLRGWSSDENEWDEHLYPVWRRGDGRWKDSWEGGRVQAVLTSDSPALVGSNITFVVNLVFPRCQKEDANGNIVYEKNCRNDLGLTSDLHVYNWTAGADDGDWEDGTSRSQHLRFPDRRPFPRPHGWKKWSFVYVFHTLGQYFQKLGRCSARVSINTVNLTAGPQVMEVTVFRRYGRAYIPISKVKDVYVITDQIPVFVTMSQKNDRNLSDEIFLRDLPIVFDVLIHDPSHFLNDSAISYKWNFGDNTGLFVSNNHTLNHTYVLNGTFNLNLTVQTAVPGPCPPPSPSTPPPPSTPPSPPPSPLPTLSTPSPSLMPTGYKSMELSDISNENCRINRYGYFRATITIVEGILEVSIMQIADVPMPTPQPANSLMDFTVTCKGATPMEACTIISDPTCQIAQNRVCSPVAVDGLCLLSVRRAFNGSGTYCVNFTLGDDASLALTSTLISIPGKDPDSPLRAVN

T4: soluble cynomolgus GPNMB (recombinant extracellular domain) (cynomolgus, UniProt Q14956 23-499 (human entry), limits assumed)
T4 chain: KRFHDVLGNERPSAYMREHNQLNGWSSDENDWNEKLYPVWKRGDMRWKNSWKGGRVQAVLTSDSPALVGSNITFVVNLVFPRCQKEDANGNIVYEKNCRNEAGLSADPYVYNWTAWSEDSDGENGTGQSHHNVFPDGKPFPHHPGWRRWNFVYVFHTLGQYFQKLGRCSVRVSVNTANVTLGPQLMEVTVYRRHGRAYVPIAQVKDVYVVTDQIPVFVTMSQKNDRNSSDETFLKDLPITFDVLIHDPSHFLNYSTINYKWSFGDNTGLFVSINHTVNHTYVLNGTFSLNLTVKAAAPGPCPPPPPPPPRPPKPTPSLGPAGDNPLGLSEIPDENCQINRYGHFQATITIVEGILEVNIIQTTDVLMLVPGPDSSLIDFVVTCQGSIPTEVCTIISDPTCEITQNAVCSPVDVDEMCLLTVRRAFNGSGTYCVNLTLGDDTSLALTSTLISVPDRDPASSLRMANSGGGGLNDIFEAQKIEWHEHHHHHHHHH

T5: soluble human GPNMB (recombinant extracellular domain) (human, UniProt Q14956 23-498)
T5 construct: also called huGPNMB; recombinant human GPNMB extracellular domain; not shown: C-terminal polyhistidine or Avi-His tag
T5 sequence: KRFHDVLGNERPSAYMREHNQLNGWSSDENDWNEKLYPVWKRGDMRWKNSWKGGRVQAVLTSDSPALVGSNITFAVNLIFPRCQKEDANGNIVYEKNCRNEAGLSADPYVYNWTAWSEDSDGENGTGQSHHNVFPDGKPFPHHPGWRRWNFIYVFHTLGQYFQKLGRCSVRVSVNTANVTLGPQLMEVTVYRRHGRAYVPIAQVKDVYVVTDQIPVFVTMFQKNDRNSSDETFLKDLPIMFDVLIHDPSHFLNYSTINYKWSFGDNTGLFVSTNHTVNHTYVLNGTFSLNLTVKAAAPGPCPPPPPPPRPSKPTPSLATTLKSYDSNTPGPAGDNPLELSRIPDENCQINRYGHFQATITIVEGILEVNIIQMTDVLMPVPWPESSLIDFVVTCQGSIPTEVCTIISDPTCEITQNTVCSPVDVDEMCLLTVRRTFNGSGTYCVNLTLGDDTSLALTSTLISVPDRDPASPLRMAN


Assays:
[1] = target: T1, soluble mouse GPNMB-Fc polypeptide (Fc …); experiment: FACS, Fab2 blocking moGPNMB-Fc binding to SVEC4-10 cells
Protocol: (§1) Purified recombinant Fab2 fragments of select anti-GPNMB antibodies of the present disclosure were produced through transient transfection and purified. Briefly, 2 ug/mL soluble mouse or human GPNMB-Fc diluted in binding buffer was pre-complexed with increasing concentrations of anti-GPNMB Fab2 fragments in 96-well plates. Subsequently, 100,000 SVEC4-10 cells were added per well and incubated on ice for 30 minutes. Soluble moGPNMB-Fc or huGPNMB-Fc bound to cell surface was detected with fluorescent anti-human IgG1 secondary antibody and measured on FACSCanto. IC50 and EC50 values based on changes in MFI values were calculated for each antibody.

[2] = target: T2, soluble human GPNMB-Fc polypeptide; experiment: FACS, Fab2 enhancing huGPNMB-Fc binding to SVEC4-10 cells
Protocol: as §1

[3] = target: T3, soluble mouse GPNMB (recombinant …); experiment: SPR Carterra, Ab amine-coupled
Protocol: (§2) Additionally, one of the anti-GPNMB antibodies of the present disclosure was evaluated using a Carterra LSA instrument (Carterra, Salt Lake City, UT). Briefly, the anti-GPNMB antibody was immobilized in duplicate spots onto an HC30M sensor chip (Carterra) by amine coupling according to the instrument manufacturer's recommended protocol. After priming with running buffer (see above) the immobilized antibody was tested for its ability to bind to recombinant human, cynomolgus, and mouse GPNMB. Analytes were diluted to 600 nM in running buffer, then further diluted 3-fold serially to 200 nM, 67 nM, 22.2 nM, 7.4 nM, and 2.5 nM. Analyte at each concentration was injected for five minutes over the entire chip using the single channel flow cell. Dissociation was measured for 5 min, followed by regeneration of the chip with two 30-second injections of 10 mM glycine, pH 2.0. The data were analyzed using the NextGenKIT high-throughput kinetics analysis software from Carterra.

[4] = target: T4, soluble cynomolgus GPNMB (recombinant …); experiment: SPR Carterra, Ab amine-coupled
Protocol: as §2

[5] = target: T5, soluble human GPNMB (recombinant …); experiment: SPR Carterra, Ab amine-coupled
Protocol: as §2

Binder	IC50 [1]	EC50 [2]	Kd [3]	koff [3]	kon [3]	Kd [4]	koff [4]	kon [4]	Kd [5]	koff [5]	kon [5]
recombinant Fab2 fragment of anti-GPNMB antibody GPN-61 (other, also called GPN-61 Fab2) VH: DVQLQESGPGLVKPSQTVFLTCTVTGISITTGNYRWSWIRQFPGNKLEWIGYIYYSGTITYNPSLTSRTTITRDTPKNQFFLEMSSLTAEDTATYFCARDLRHWYFDVWGTGTTVTVSS VL: not shown	1.56 nM	9.05 nM	–	–	–	–	–	–	–	–	–
anti-GPNMB antibody GPN-81 (antibody, V domains shown, humanized GPN-52) VH: QVQLQESGPGLVKPSETLSLTCTVSGISITTGNYRWSWIRQPPGKGLEWIGYIYYSGTITYNPSLKSRVTITRDTSKNQFSLELSSVTAADTAVYYCARDLTHWYFDVWGQGTLVTVSS VL: DIVMTQSPDSLAVSLGERATINCKSSESVDYYGIGFLNWYQQKPGQPPKLLIYAASTQGSGVPDRFSGSGSGTDFTLTISSLQAEDVAVYYCQQSKEVPPTFGGGTKVEIK	–	–	12 nM	0.0019 s⁻¹	180000 M⁻¹ s⁻¹	107 nM	0.01 s⁻¹	97000 M⁻¹ s⁻¹	135 nM	0.0098 s⁻¹	76000 M⁻¹ s⁻¹
